# From paper PMC4822050 (2016)
# Non-standard residues stand in square brackets, D forms with d. No end group written: not given here. pS = N[C@@H](COP(=O)(O)O)C(=O)O
# T1: SRA–Spacer of UHRF1 (residues 414–674) (human, UniProt Q96T88 414-674)
# T1 chain: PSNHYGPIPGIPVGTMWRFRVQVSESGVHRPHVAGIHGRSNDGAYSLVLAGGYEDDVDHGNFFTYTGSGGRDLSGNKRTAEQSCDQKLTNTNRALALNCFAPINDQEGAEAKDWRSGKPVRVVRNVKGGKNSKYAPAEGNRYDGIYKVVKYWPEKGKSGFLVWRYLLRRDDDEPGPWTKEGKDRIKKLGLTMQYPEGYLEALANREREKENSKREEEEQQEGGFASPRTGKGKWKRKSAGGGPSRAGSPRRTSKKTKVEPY
# T2: Spacer^Δ650–654 (human, UniProt Q96T88 587-674, Δ650–654)
# T2 sequence: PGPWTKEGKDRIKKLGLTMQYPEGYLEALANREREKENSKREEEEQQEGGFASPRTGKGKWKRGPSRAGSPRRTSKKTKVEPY
# T3: Spacer^Δ642–651 (human, UniProt Q96T88 587-674, Δ642–651)
# T3 sequence: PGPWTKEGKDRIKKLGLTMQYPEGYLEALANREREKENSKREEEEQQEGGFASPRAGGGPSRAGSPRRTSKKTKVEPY
# T4: Spacer^Δ655–659 (human, UniProt Q96T88 587-674, Δ655–659)
# T4 sequence: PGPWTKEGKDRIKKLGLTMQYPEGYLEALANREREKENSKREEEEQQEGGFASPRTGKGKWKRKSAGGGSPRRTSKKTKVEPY
# T5: Spacer^Δ670–674 (human, UniProt Q96T88 587-674, Δ670–674)
# T5 sequence: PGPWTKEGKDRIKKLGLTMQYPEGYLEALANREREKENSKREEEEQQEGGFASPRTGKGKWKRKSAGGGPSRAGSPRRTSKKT
# T6: Spacer^Δ660–664 (human, UniProt Q96T88 587-674, Δ660–664)
# T6 sequence: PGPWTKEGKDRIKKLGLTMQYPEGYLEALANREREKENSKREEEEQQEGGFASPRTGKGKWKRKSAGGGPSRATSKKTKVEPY
# T7: Spacer^Δ665–669 (human, UniProt Q96T88 587-674, Δ665–669)
# T7 sequence: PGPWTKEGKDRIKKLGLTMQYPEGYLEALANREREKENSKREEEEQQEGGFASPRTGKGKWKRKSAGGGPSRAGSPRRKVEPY
# T8: Spacer S666D (human, UniProt Q96T88 587-674, S666D)
# T8 sequence: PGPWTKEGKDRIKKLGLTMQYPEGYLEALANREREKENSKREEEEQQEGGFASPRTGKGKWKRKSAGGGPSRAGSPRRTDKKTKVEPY
# T9: Spacer R649A (human, UniProt Q96T88 587-674, R649A)
# T9 sequence: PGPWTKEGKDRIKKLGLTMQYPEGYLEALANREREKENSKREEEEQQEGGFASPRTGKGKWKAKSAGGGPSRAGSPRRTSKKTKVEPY
# T10: Spacer S651D (human, UniProt Q96T88 587-674, S651D)
# T10 sequence: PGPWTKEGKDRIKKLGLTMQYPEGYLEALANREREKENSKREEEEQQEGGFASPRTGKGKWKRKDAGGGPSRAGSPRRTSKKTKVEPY
# T11: Spacer S639D (human, UniProt Q96T88 587-674, S639D)
# T11 sequence: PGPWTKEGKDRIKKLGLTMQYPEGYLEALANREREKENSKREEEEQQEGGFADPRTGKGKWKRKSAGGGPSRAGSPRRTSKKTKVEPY
# T12: Spacer K648D (human, UniProt Q96T88 587-674, K648D)
# T12 sequence: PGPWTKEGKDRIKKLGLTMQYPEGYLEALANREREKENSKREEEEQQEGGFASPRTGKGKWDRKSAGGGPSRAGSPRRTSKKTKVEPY
# B1: Spacer of UHRF1 (residues 587–674) (domain or fragment)
# chain: PGPWTKEGKDRIKKLGLTMQYPEGYLEALANREREKENSKREEEEQQEGGFASPRTGKGKWKRKSAGGGPSRAGSPRRTSKKTKVEPY
# B2: TTD of UHRF1 (residues 134–285) (domain or fragment)
# chain: LYKVNEYVDARDTNMGAWFEAQVVRVTRKAPSRDEPCSSTSRPALEEDVIYHVKYDDYPENGVVQMNSRDVRARARTIIKWQDLEVGQVVMLNYNPDNPKERGFWYDAEISRKRETRTARELYANVVLGDDSLNDCRIIFVDEVFKIERPGE
# Experiments:
# [1] = molecular target: B2; experiment: ITC; in presence of Linker (TTD:Linker 1:2)
# [2] = molecular target: B2; experiment: ITC; in presence of Linker
# [3] = molecular target: B2; experiment: ITC
# [4] = molecular target: B2; experiment: ITC; phosphorylated S651
# [5] = molecular target: B1; experiment: ITC
# [6] = molecular target: T1, SRA–Spacer of UHRF1 (residues 414–674); experiment: ITC
# Spacer^Δ650–654 = molecular target: T2, Spacer^Δ650–654; experiment: ITC
# Spacer^Δ642–651 = molecular target: T3, Spacer^Δ642–651; experiment: ITC
# Spacer^Δ655–659 = molecular target: T4, Spacer^Δ655–659; experiment: ITC
# Spacer^Δ670–674 = molecular target: T5, Spacer^Δ670–674; experiment: ITC
# Spacer^Δ660–664 = molecular target: T6, Spacer^Δ660–664; experiment: ITC
# Spacer^Δ665–669 = molecular target: T7, Spacer^Δ665–669; experiment: ITC
# Spacer S666D = molecular target: T8, Spacer S666D; experiment: ITC
# Spacer R649A = molecular target: T9, Spacer R649A; experiment: ITC
# Spacer S651D = molecular target: T10, Spacer S651D; experiment: ITC
# Spacer S639D = molecular target: T11, Spacer S639D; experiment: ITC
# Spacer K648D = molecular target: T12, Spacer K648D; experiment: ITC
# [7] = molecular target: B1; experiment: ITC; in presence of hm-DNA (1:2)
# [8] = molecular target: T1, SRA–Spacer of UHRF1 (residues 414–674); experiment: ITC; in presence of hm-DNA (1:2)
binder,measurement,setting,value
B1,Kd,[1],3730 nM
same,Kd,[2],3730 nM
TGKGKWKRKSAGGGPSRAGSPRRTSKKTKVEPY (domain or fragment) [Spacer^642–674],Kd,[3],970 nM
TGKGKWKRK[pS]AGGGPSRAGSPRR [peptide of Spacer^642–664 phosphorylated at S651],Kd,[4],27800 nM
TGKGKWKRKSAGGGPSRAGSPRR [unmodified peptide of Spacer^642–664],Kd,[3],1260 nM
B2,Kd,[5],2340 nM
same,Kd,[6],820 nM
same,Kd,Spacer^Δ650–654,3800 nM
same,Kd,Spacer^Δ642–651,11200 nM
same,Kd,Spacer^Δ655–659,2980 nM
same,Kd,Spacer^Δ670–674,950 nM
same,Kd,Spacer^Δ660–664,2470 nM
same,Kd,Spacer^Δ665–669,1850 nM
same,Kd,Spacer S666D,1260 nM
same,Kd,Spacer R649A,21400 nM
same,Kd,Spacer S651D,8810 nM
same,Kd,Spacer S639D,1150 nM
same,Kd,Spacer K648D,5940 nM
same,Kd,[7],2040 nM
same,Kd,[8],143000 nM
